{"source": "patent US20210063414A1", "about": "“METHODS FOR PREVENTING AND/OR TREATING BONE LOSS CONDITIONS BY MODULATING IRISIN” (Dana-Farber Cancer Institute, Inc., priority 2018, published 2021)", "key": {"[1]": {"biological_target": "T1, MLO-Y4 cell surface proteins (Mus musculus, UniProt Q9D3P1)", "T1 construct": "endogenous in cells; host or cells: MLO-Y4", "T1 sequence (Q9D3P1 1-638)": "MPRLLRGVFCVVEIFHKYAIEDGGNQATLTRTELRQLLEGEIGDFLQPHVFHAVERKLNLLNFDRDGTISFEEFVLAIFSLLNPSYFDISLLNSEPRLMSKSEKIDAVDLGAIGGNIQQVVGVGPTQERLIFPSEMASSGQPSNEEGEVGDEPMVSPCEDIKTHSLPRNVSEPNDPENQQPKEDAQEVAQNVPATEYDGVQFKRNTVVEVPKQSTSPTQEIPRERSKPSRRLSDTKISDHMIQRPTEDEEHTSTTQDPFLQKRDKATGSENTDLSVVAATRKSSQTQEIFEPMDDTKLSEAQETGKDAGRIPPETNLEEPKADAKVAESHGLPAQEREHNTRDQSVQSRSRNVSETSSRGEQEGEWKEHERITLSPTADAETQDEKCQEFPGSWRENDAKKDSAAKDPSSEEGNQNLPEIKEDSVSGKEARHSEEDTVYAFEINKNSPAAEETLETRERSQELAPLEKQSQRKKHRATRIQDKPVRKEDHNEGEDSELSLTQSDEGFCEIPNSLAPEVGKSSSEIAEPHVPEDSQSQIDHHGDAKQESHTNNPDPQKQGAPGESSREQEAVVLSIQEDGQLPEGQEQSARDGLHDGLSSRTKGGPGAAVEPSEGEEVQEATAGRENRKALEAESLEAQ", "assay": "Crosslinking/co-immunoprecipitation/mass spectrometry (TMT quantitative proteomics) to identify irisin receptors", "assay_type": "binding", "conditions": "co-precipitated protein Tchhl1 (TCHL1_MOUSE)", "outline": "(§1)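 Relative protein abundance came from 6-plex TMT MS3 quantitation on an Orbitrap Fusion Lumos, after in-gel trypsin digestion of Coomassie-stained SDS-PAGE lanes. Input was a Ni-NTA pulldown (250 mM imidazole elution) of lysates from murine MLO-Y4 cells. These cells were treated on ice with His-tagged irisin or adipsin (10 nM, 20 min) in serum-free medium, then crosslinked with 1.5 mM DTSSP for 30 min.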"}, "[2]": {"biological_target": "T2, MLO-Y4 cell surface proteins (Mus musculus, UniProt P39654)", "T2 construct": "endogenous in cells; host or cells: MLO-Y4", "T2 sequence (P39654 1-663)": "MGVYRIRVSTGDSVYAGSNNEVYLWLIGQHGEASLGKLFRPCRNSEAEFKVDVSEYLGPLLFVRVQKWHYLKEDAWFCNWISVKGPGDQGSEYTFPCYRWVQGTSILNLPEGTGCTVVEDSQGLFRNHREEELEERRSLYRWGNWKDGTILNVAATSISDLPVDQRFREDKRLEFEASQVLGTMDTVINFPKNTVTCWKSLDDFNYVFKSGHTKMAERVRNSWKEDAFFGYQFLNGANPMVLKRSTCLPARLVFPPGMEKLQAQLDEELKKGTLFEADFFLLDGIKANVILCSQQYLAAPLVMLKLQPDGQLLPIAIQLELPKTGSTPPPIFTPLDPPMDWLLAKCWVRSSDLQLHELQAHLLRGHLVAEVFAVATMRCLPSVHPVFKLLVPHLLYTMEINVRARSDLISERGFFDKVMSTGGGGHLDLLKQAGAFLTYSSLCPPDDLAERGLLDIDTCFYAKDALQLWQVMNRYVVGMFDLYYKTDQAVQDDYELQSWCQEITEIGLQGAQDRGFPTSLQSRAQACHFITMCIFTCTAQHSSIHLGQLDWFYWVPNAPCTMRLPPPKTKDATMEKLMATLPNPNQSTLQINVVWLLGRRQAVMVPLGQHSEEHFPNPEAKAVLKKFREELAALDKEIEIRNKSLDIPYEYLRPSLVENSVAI", "assay": "Crosslinking/co-immunoprecipitation/mass spectrometry (TMT quantitative proteomics) to identify irisin receptors", "assay_type": "binding", "conditions": "co-precipitated protein Alox15 (LOX15_MOUSE)", "outline": "as §1"}}, "data": [{"substance": "adipsin", "values": [{"measurement": "TMT signal-to-noise ratio", "setting": "[1]", "value": 1810.14}, {"measurement": "TMT signal-to-noise ratio", "setting": "[2]", "value": 141.336}]}]}
